Measurements taken from patent US20160002344A1 (ONCOMED PHARMACEUTICALS, published 2016).

T1: soluble LGR5-Fc fusion protein (human, UniProt O75473 22-564)
T1 construct: range 22-564; Expressed in insect cells with baculovirus, purified on protein A; not shown: human Fc
T1 sequence (looked up): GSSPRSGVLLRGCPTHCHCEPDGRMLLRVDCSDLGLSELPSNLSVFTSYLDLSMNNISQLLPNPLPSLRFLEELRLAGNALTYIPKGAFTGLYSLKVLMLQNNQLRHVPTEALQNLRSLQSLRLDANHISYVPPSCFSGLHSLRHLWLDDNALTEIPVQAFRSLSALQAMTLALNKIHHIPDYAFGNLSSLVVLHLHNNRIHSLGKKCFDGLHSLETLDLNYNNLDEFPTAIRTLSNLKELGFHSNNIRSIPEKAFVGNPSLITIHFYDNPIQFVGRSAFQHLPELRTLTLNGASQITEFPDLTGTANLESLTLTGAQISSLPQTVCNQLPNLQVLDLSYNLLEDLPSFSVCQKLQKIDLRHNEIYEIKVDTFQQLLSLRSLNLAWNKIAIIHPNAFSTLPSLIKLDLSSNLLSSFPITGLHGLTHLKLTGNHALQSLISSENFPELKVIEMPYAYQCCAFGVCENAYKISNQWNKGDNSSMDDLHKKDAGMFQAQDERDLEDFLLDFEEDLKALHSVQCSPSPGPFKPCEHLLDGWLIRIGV

B1: recombinant human RSPO2-Fc fusion protein (Fc fusion)
chain: QGNRWRRSKRASYVSNPICKGCLSCSKDNGCSRCQQKLFFFLRREGMRQYGECLHSCPSGYYGHRAPDMNRCARCRIENCDSCFSKDFCTKCKVGFYLHRGRCFDECPDGFAPLEETMECVEGCEVGHWSEWGTCSRNNRTCGFKWGLETRTRQIVKKPVKDTIPCPTIAESRRCKMTMRHCPGGKRTPKAKEKRNKKKKRKLIERAQEQHSVFLATDRANQ
notes: not shown: human Fc region
B2: recombinant human RSPO1-Fc fusion protein (Fc fusion)
chain: SRGIKGKRQRRISAEGSQACAKGCELCSEVNGCLKCSPKLFILLERNDIRQVGVCLPSCPPGYFDARNPDMNKCIKCKIEHCEACFSHNFCTKCKEGLYLHKGRCYPACPEGSSAANGTMECSSPAQCEMSEWSPWGPCSKKQQLCGFRRGSEERTRRVLHAPVGDHAACSDTKETRRCTVRRVPCPEGQKRRKGGQGRRENANRNLARKESKEAGAGSRRRKGQQQQQQQGTVGPLTSAGPA
notes: not shown: human Fc region

Tests used:
[1] = molecular target: T1, soluble LGR5-Fc fusion protein; test: SPR (Biacore 2000), RSPO-Fc immobilized on CM5 chip, soluble LGR5-Fc injected 100 nM to 0.78 nM
Description: Binding affinities between RSPO proteins and LGR5 were analyzed by surface plasmon resonance. A soluble LGR5-Fc construct was generated using standard recombinant DNA techniques. Specifically, amino acids 1-564 of human LGR5 were ligated in frame to human Fc and the recombinant LGR5-Fc fusion protein was expressed in insect cells using baculovirus. The LGR5-Fc fusion protein was purified from the insect medium using protein A chromatography. Cleavage of the LGR5 signal sequence results in a mature LGR5-Fc fusion protein containing amino acids 22-564 of LGR5. Recombinant RSPO1-Fc, RSPO2-Fc, RSPO3-Fc and RSPO4-Fc fusion proteins were immobilized on CM5 chips using standard amine-based chemistry (NHS/EDC). Two-fold dilutions of soluble LGR5-Fc were injected over the chip surface (100 nM to 0.78 nM). Kinetic data were collected over time using a Biacore 2000 system from Biacore Life Sciences (GE Healthcare) and the data were fit using the simultaneous global fit equation to yield affinity constants (KD values) for each RSPO protein (Table 3).

[2] = molecular target: B2; test: SPR (Biacore 2000), RSPO1-Fc immobilized on CM5 chip, antibody injected 100 nM to 0.78 nM
Description: (§1) The KDs of antibodies 89M4, 89M5, 89M7 and 89M25 were determined using a Biacore 2000 system from Biacore LifeSciences (GE Healthcare). Recombinant human RSPO1-Fc or mouse RSPO1-Fc proteins were immobilized on CM5 chips using standard amine-based chemistry (NHS/EDC). The antibodies were serially diluted 2-fold from 100 nM to 0.78 nM in HBS-P (0.01M HEPES pH7.4, 0.15M NaCl, 0.005% v/v Surfactant P20) and were injected over the chip surface. Kinetic data were collected over time and were fit using the simultaneous global fit equation to yield affinity constants (KD values) for each antibody.

[3] = molecular target: T2, recombinant mouse RSPO1-Fc protein (mouse, UniProt Q9Z132 21-265, limits assumed); test: as above
T2 construct: Construct not described; not shown: Fc; not described
Description: as §1

[4] = molecular target: Figure 9A construct 4: Positive charge, furin1, furin2, cysteine, Thrombospondin, Positive charge (human) (UniProt Q2MKA7); test: FACS, HEK-293 cells transfected with the FLAG-RSPO1 portion-CD4TM construct in Figure 9A; anti-RSPO1 antibody 89M5, PE-conjugated secondary antibody
[5] = molecular target: Figure 9A construct 3: Positive charge, furin1, furin2, cysteine, Thrombospondin (human) (UniProt Q2MKA7); test: as above
[6] = molecular target: Figure 9A construct 1: Positive charge, furin1 (human) (UniProt Q2MKA7); test: as above
[7] = molecular target: Figure 9A construct 2: Positive charge, furin1, furin2 (human) (UniProt Q2MKA7); test: as above
[8] = molecular target: Figure 9A construct 5: furin1, furin2, cysteine (human) (UniProt Q2MKA7); test: as above
[9] = molecular target: T3, recombinant mouse RSPO2-Fc protein (mouse, UniProt Q8BFU0 24-243, limits assumed); test: SPR (Biacore 2000), RSPO2-Fc immobilized on CM5 chip, antibody injected 100 nM to 0.78 nM
T3 construct: Construct not described; not shown: Fc; not described
Description: as §1, with “KD” for “KDs”, “130M23 was” for “antibodies 89M4, 89M5, 89M7 and 89M25 were”, “RSPO2-Fc” for “RSPO1-Fc”

[10] = molecular target: B1; test: as above
Description: as §1, with “KD” for “KDs”, “130M23 was” for “antibodies 89M4, 89M5, 89M7 and 89M25 were”, “RSPO2-Fc” for “RSPO1-Fc”

[11] = molecular target: B1; test: SPR (Biacore 2000), human RSPO2-Fc immobilized on CM5 chip, antibody injected 100 nM to 0.78 nM
Description: as §1, with “KD” for “KDs”, “h130M23-H1L2” for “antibodies 89M4, 89M5, 89M7”, “h130M23-H1L6” for “89M25”, “RSPO2-Fc protein was” for “RSPO1-Fc or mouse RSPO1-Fc proteins were”

Figure 9A construct 1: Positive charge, furin1 (human), sequence (Q2MKA7 other isoform, or with tags, fused parts or gaps): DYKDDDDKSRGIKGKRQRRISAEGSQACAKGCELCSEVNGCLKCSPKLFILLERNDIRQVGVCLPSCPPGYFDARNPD
Figure 9A construct 3: Positive charge, furin1, furin2, cysteine, Thrombospondin (human), sequence (Q2MKA7 other isoform, or with tags, fused parts or gaps): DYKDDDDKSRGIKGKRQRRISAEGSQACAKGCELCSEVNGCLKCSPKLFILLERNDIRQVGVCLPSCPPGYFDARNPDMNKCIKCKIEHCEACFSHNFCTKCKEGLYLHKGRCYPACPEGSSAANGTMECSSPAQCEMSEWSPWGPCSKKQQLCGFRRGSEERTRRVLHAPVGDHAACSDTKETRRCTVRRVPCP
Figure 9A construct 5: furin1, furin2, cysteine (human), sequence (Q2MKA7 other isoform, or with tags, fused parts or gaps): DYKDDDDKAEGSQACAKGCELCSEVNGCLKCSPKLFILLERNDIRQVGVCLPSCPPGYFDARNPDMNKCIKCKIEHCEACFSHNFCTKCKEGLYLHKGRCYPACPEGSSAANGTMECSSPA
Figure 9A construct 2: Positive charge, furin1, furin2 (human), sequence (Q2MKA7 other isoform, or with tags, fused parts or gaps): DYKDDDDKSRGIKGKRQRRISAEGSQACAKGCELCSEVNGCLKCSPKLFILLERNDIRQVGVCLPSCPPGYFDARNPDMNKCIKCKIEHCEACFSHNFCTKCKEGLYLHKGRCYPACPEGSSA
T3 sequence (Q8BFU0 24-243 limits assumed): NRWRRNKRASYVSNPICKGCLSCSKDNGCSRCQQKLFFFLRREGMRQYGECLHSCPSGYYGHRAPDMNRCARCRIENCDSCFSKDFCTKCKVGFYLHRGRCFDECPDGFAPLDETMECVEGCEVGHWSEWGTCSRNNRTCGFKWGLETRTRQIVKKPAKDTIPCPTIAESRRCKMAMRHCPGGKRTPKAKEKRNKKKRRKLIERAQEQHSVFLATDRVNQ

Binder | Kd [1] [nM] | Kd [2] [nM] | Kd [3] [nM] | further results
B1 | 14 | – | – | –
anti-RSPO1 monoclonal antibody 89M5 (hybridoma ATCC PTA-11970) (antibody, mouse IgG1, kappa, V domains shown, Murine monoclonal antibody; also called parental 89M5 antibody) VH: EVQLQQSGPELVKPGASVKISCKTSGYTFTGYTMHWVRQSHGKTLEWIGGINPNNGGTTYNQNFKGKATLTVEKSSTTAYLELRSLTSEDSALYYCARKEFSDGYYFFAYWGQGTLVTVSS VL: DIVMTQSHKFMSTSVGDRVNITCKASQDVIFAVAWYQQKPGQSPKLLIYWASTRHTGVPDRFTGSVSGTDYTLTISSVQAEDLALYYCQQHYSTPWTFGGGTKLEIKR | – | < 0.1 | < 0.1 | MFI [4]: 10.3; MFI [5]: 20.1; MFI [6]: 5.42; MFI [7]: 15.5; MFI [8]: 406
anti-RSPO1 monoclonal antibody 89M25 (antibody, V domains shown) VH: EVQLQQSGPELVKPGASVKISCKTSGYTFTGYTMHWVRQSHGKTLEWIGGINPNNGGTTYNQNFKGKATLTVEKSSTTAYLELRSLTSEDSALYYCARKEFSDGYYFFAYWGQGTLVTVSA VL: DIVMTQSHKFMSTSVGDRVNITCKASQDVIFAVAWYQQKPGQSPKLLIYWASTRHTGVPDRFTGSVSGTDYTLTISSVQAEDLALYYCQQHYSTPWTFGGGTKLEIK | – | < 0.1 | < 0.1 | –
anti-RSPO2 monoclonal antibody 130M23 (hybridoma ATCC PTA-12021) (antibody, mouse IgG1, kappa, V domains shown, Murine monoclonal antibody; also called parental 130M23 antibody) VH: EVKLVESGGGLVKPGGSLKFSCAASGFSFSSYAMSWVRQTPEKRLEWVASISSGGSTYYPDSVKGRFTISRDNVRNILYLQMSSLRSEDTAMYFCARGGDPGVYNGDYEDAMDYWGQGTSVTVSS VL: DIVMTQSHKFMSTSVGDRVSITCKASQDVSSAVAWYQQKPGQSPKLLIYWASTRHTGVPDRFTNSGSGTDYTLTISSVQAEDLALYYCQQHYSTPWTFGGGTKLEIKR | – | – | – | Kd [9]: 0.35 nM; Kd [10]: 0.14 nM
anti-RSPO1 monoclonal antibody 89M4 (antibody, V domains shown) VH: EVQLQQSGPELVKPGASVKISCKTSGYTFTGYTMHWVRQSHGKTLEWIGGINPNNGGTTYNQNFKGKATLTVEKSSTTAYLELRSLTSEDSALYYCARKEFSDGYYFFAYWGQGTLVTVSA VL: DIVMTQSHKFMSTSVGDRVNITCKASQDVIFAVAWYQQKPGQSPKLLIYWASTRHTGVPDRFTGSVSGTDYTLTISSVQAEDLALYYCQQHYSTPWTFGGGTKLEIK | – | < 0.1 | < 0.1 | –
B2 | 110 | – | – | –
recombinant human RSPO4-Fc fusion protein (Fc fusion, not shown: human Fc region) LNRRKKQVGTGLGGNCTGCIICSEENGCSTCQQRLFLFIRREGIRQYGKCLHDCPPGYFGIRGQEVNRCKKCGATCESCFSQDFCIRCKRQFYLYKGKCLPTCPPGTLAHQNTRECQGECELGPWGGWSPCTHNGKTCGSAWGLESRVREAGRAGHEEAATCQVLSESRKCPIQRPCPGERSPGQKKGRKDRRPRKDRKLDRRLDVRPRQPGLQP | 73 | – | – | –
humanized anti-RSPO2 antibody h130M23-H1L2 (antibody, human IgG2, kappa, V domains shown, also called 130M23-H1 with 130M23-L2) VH: EVQLVESGGGLVKPGGSLRLSCAASGFTFSSYAMSWVRQAPGKGLEWVSSISSGGSTYYPDSVKGRFTISRDNAKNSLYLQMNSLRAEDTAVYYCARGGDPGVYNGDYEDAMDYWGQGTTVTVSS VL: DIQMTQSPSSLSASVGDRVTITCKASQDVSSAVAWYQQKPGKAPKLLIYWASTRHTGVPSRFSGSGSGTDFTLTISSVQAEDFATYYCQQHYSTPWTFGQGTKVEIKR | – | – | – | Kd [11]: 0.13 nM
humanized anti-RSPO2 antibody h130M23-H1L6 (antibody, human IgG2, kappa, V domains shown) VH: EVQLVESGGGLVKPGGSLRLSCAASGFTFSSYAMSWVRQAPGKGLEWVSSISSGGSTYYPDSVKGRFTISRDNAKNSLYLQMNSLRAEDTAVYYCARGGDPGVYNGDYEDAMDYWGQGTTVTVSS VL: DIQMTQSPSSLSASVGDRVTITCKASQDVSSAVAWYQQKPGKAPKLLIYWASTRHTGVPSRFSGSGSGTDFTLTISSLQPEDFATYYCQQHYSTPWTFGQGTKVEIKR | – | – | – | Kd [11]: 0.15 nM
recombinant human RSPO3-Fc fusion protein (Fc fusion, not shown: human Fc region) QNASRGRRQRRMHPNVSQGCQGGCATCSDYNGCLSCKPRLFFALERIGMKQIGVCLSSCPSGYYGTRYPDINKCTKCKADCDTCFNKNFCTKCKSGFYLHLGKCLDNCPEGLEANNHTMECVSIVHCEVSEWNPWSPCTKKGKTCGFKRGTETRVREIIQHPSAKGNLCPPTNETRKCTVQRKKCQKGERGKKGRERKRKKPNKGESKEAIPDSKSLESSKEIPEQRENKQQQKKRKVQDKQKSVSVSTVH | < 1 | – | – | –
